Test results: patent US20170218430

Tested on: methylarginine peptide (SEQ ID NO:1)

Row | Substance | demethylation of the peptide, read as gain of anti-RG signal on slot blot (6 hours, 30 C) | demethylation of the peptide, read as loss of anti-mRG signal on slot blot (20 hours, 22.5 C)
1 | TbJmJ1 fusion protein (MBP-JmJ1, Jumonji Fusion Protein 1) | giving a positive reaction with anti-RG in a dose-dependent manner | –
2 | TbJmJ2 fusion protein (MBP-JmJ2, Jumonji Fusion Protein 2) | giving a positive reaction with anti-RG in a dose-dependent manner | indicates a concentration-dependent decrease in the methylation status of the GmRG peptide
